Assay results published in patent US20240132578A1.

Columns and labels:
[1] = target: JR-FL GP120 ΔV3 (HIV-1 JR-FL); assay: ELISA, antigen-coated wells, mAb titrated; EC50 by nonlinear regression
[2] = target: HIV-1 MGRM-D-018 envelope glycoprotein (Env) on pseudovirus (HIV-1); assay: cell-based or functional assay
[3] = target: HIV-1 APV6 envelope glycoprotein (Env) on pseudovirus (HIV-1); assay: cell-based or functional assay
[4] = target: HIV-1 MGRM-D-001 envelope glycoprotein (Env) on pseudovirus (HIV-1); assay: cell-based or functional assay
[5] = target: HIV-1 JR-CSF Env T388A (HIV-1 isolate JR-CSF) (UniProt P20871); assay: cell-based or functional assay
[6] = target: HIV-1 93IN905 envelope glycoprotein (Env) on pseudovirus (HIV-1); assay: cell-based or functional assay
[7] = target: HIV-1 MGRM-C-027 envelope glycoprotein (Env) on pseudovirus (HIV-1); assay: cell-based or functional assay
[8] = target: HIV-1 JR-CSF Env H330A (HIV-1 isolate JR-CSF) (UniProt P20871); assay: cell-based or functional assay
[9] = target: HIV-1 APV13 envelope glycoprotein (Env) on pseudovirus (HIV-1); assay: cell-based or functional assay
[10] = target: HIV-1 JR-CSF Env R327A (HIV-1 isolate JR-CSF) (UniProt P20871); assay: cell-based or functional assay
[11] = target: HIV-1 92UG024 envelope glycoprotein (Env) on pseudovirus (HIV-1); assay: cell-based or functional assay
[12] = target: HIV-1 APV17 envelope glycoprotein (Env) on pseudovirus (HIV-1); assay: cell-based or functional assay
[13] = target: HIV-1 JR-CSF Env N332A (HIV-1 isolate JR-CSF) (UniProt P20871); assay: cell-based or functional assay
[14] = target: HIV-1 JR-CSF Env T202A (HIV-1 (isolate JR-CSF)) (UniProt P20871); assay: cell-based or functional assay
[15] = target: HIV-1 NL43 envelope glycoprotein (Env) on pseudovirus (HIV-1); assay: cell-based or functional assay
[16] = target: HIV-1 JR-CSF Env Q337A (HIV-1 isolate JR-CSF) (UniProt P20871); assay: cell-based or functional assay
[17] = target: HIV-1 Env of isolate MGRM-D-019 (pseudovirus) (HIV-1); assay: cell-based or functional assay
[18] = target: HIV-1 JR-CSF Env I309A (HIV-1 (isolate JR-CSF, clade B)) (UniProt P20871); assay: cell-based or functional assay
[19] = target: HIV-1 envelope glycoprotein (Env) of isolate 92BR020, on pseudovirus (HIV-1); assay: cell-based or functional assay
[20] = target: HIV-1 JR-CSF Env T320A (HIV-1 (isolate JR-CSF, clade B)) (UniProt P20871); assay: cell-based or functional assay
[21] = target: HIV-1 envelope glycoprotein (Env) of isolate MG RM-A-002, subtype A (HIV-1); assay: cell-based or functional assay
[22] = target: HIV-1 envelope glycoprotein (Env) of isolate 92WR026, subtype A (HIV-1); assay: cell-based or functional assay
[23] = target: HIV-1 JR-CSF Env I323A (HIV-1 (isolate JR-CSF, clade B)) (UniProt P20871); assay: cell-based or functional assay
[24] = target: HIV-1 Env of isolate MGRM-F1-014 (pseudovirus) (HIV-1); assay: cell-based or functional assay
[25] = target: HIV-1 JR-CSF Env K305A (HIV-1 (isolate JR-CSF, clade B)) (UniProt P20871); assay: cell-based or functional assay
HIV-1 APV17 Env (HIV-1) = assay: cell-based or functional assay
[26] = target: HIV-1 MGRM-D-001 Env (HIV-1); assay: cell-based or functional assay
[27] = target: HIV-1 MGRM-AG-005 Env (HIV-1); assay: cell-based or functional assay
HIV-1 APV13 Env (HIV-1) = assay: cell-based or functional assay

Substance: 5343_B08 (PGT-135) (antibody)
- EC50 [1]: 0.2 µg/mL
- Neutralization IC80 [2]: 0.2 µg/mL
- Neutralization IC90 [2]: > 10 µg/mL
- Neutralization IC95 [2]: > 10 µg/mL
- neutralization IC50 [2]: 0.0433 µg/mL
- Neutralization IC80 [3]: > 10 µg/mL
- Neutralization IC90 [3]: > 10 µg/mL
- Neutralization IC95 [3]: > 10 µg/mL
- neutralization IC50 [3]: > 10 µg/mL
- Neutralization IC80 [4]: > 10 µg/mL
- Neutralization IC90 [4]: > 10 µg/mL
- Neutralization IC95 [4]: > 10 µg/mL
- neutralization IC50 [4]: > 10 µg/mL
- Fold IC50 increase relative to wild-type [5]: 0.1 fold
- Neutralization IC80 [6]: 0.0648 µg/mL
- Neutralization IC90 [6]: 0.136 µg/mL
- Neutralization IC95 [6]: 0.268 µg/mL
- neutralization IC50 [6]: 0.0183 µg/mL
- Neutralization IC80 [7]: > 10 µg/mL
- Neutralization IC90 [7]: > 10 µg/mL
- Neutralization IC95 [7]: > 10 µg/mL
- neutralization IC50 [7]: > 10 µg/mL
- Fold IC50 increase relative to wild-type [8]: > 250 fold
- Neutralization IC80 [9]: > 10 µg/mL
- Neutralization IC90 [9]: > 10 µg/mL
- Neutralization IC95 [9]: > 10 µg/mL
- neutralization IC50 [9]: 0.545 µg/mL
- Fold IC50 increase relative to wild-type [10]: 0.67 fold
- Neutralization IC80 [11]: 0.054 µg/mL
- Neutralization IC90 [11]: 0.122 µg/mL
- Neutralization IC95 [11]: 0.267 µg/mL
- neutralization IC50 [11]: 0.0139 µg/mL
- Neutralization IC80 [12]: > 10 µg/mL
- Neutralization IC90 [12]: > 10 µg/mL
- Neutralization IC95 [12]: > 10 µg/mL
- neutralization IC50 [12]: > 10 µg/mL
- Fold IC50 increase relative to wild-type [13]: > 250 fold
- Fold IC50 increase relative to wild-type [14]: 1.8 fold
- Neutralization IC80 [15]: > 10 µg/mL
- Neutralization IC90 [15]: > 10 µg/mL
- Neutralization IC95 [15]: > 10 µg/mL
- neutralization IC50 [15]: 6.79 µg/mL
- Fold IC50 increase relative to wild-type [16]: 2.1 fold
- IC50 (µg/mL), pseudovirus neutralization [17]: > 50 µg/mL

Substance: 5145_B14 (PGT-127) (antibody)
- Fold IC50 increase relative to wild-type [5]: 0.5 fold
- Fold IC50 increase relative to wild-type [18]: 6 fold
- Fold IC50 increase relative to wild-type [8]: 0.5 fold
- IC50, pseudovirus neutralization [19]: 0.059 µg/mL
- Fold IC50 increase relative to wild-type [20]: 1.8 fold
- Fold IC50 increase relative to wild-type [10]: 1.8 fold
- Fold IC50 increase relative to wild-type [13]: > 100 fold
- IC50, pseudovirus neutralization [21]: 9.42 µg/mL
- Fold IC50 increase relative to wild-type [14]: 1.8 fold
- IC50, pseudovirus neutralization [22]: 0.024 µg/mL
- Fold IC50 increase relative to wild-type [23]: 4 fold
- IC50 (µg/mL), pseudovirus neutralization [24]: > 50 µg/mL
- Fold IC50 increase relative to wild-type [16]: 0.5 fold
- Fold IC50 increase relative to wild-type [25]: 2.6 fold

Substance: 4858_P08 (PGT-123) (antibody)
- IC50, pseudovirus neutralization (HIV-1 APV17 Env (HIV-1)): 0.18 µg/mL
- Fold IC50 increase relative to wild-type [5]: 0.2 fold
- IC50, pseudovirus neutralization [26]: 0.215 µg/mL
- Fold IC50 increase relative to wild-type [18]: 1.6 fold
- IC50, pseudovirus neutralization [27]: 0.104 µg/mL
- Fold IC50 increase relative to wild-type [8]: 0.3 fold
- IC50, pseudovirus neutralization [19]: 0.008 µg/mL
- IC50, pseudovirus neutralization (HIV-1 APV13 Env (HIV-1)): 0.222 µg/mL
- Fold IC50 increase relative to wild-type [13]: > 200 fold
- IC50, pseudovirus neutralization [21]: 0.011 µg/mL
- IC50, pseudovirus neutralization [22]: 0.012 µg/mL
- IC50 (µg/mL), pseudovirus neutralization [24]: 0.111 µg/mL
